The values that follow come from patent publication US20140087995A1 (published 2014).

Numbered stars: 1 amine (or outer) side, 2 acyl side, 3 side chain; on linkers, the order of the positions; unused ones are H or OH. Bridge positions count the residues as written; N and C are the ends. * marks the point of attachment. C20 diacid = O=C(O)CCCCCCCCCCCCCCCCCCC(=O)*; γGlu = O=C(O)[C@H](CCC(=O)[*:2])N[*:1]; AEEA = NCCOCCOCC(=O)O

Experiment [1] concerns the target T1, human calcitonin receptor (human, UniProt P30988 25-474).
T1 construct: whole, on cells; also called hCTR; hCT
T1 sequence (looked up): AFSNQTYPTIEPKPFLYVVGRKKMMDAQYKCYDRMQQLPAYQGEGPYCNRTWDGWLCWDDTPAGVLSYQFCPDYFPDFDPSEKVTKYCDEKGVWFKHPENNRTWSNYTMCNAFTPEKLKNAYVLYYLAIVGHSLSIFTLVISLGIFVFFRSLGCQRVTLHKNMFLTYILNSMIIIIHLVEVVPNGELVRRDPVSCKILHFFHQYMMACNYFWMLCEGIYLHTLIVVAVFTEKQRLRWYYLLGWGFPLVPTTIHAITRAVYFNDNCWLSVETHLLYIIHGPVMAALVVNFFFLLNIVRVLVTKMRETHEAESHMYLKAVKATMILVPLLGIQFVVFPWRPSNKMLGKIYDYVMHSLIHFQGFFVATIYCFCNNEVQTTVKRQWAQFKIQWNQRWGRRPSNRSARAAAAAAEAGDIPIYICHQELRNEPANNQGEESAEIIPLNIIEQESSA
Kind of experiment: ratio of IC50 at hCTR to IC50 at the human amylin receptor (reference). Here is the method:
The resulting pellet was resuspended, homogenized and centrifuged (20.000 rpm, 15 min) in a buffer containing 20 mM Na-HEPES and 0.1 mM EDTA (pH 7.4, buffer 2). The resulting pellet was resuspended in buffer 2 and protein concentration was measured (BCA protein Assay, Pierce). The homogenate was kept cold during the whole procedure. The membranes were kept at −80° C. until use. The assay was performed in a 384 well Optiplate (PerkinElmer) in a total volume of 40 ul. Membranes were mixed with SPA beads. Final concentration of membranes 35 ng/μL final and SPA beads was 0.05 mg/well. Test-compounds were dissolved in DMSO and further diluted in assay buffer (50 mM Hepes, pH 7.4, 1 mM CaCl2, 5 mM MgCl₂, 0.1% OA and 0.02% Tween20). […] The final mixture was incubated with shaking at 400 rpm for 120 min at 25° C. prior to centrifugation (1500 rpm, 10 min). Samples were analyzed on TopCounter™ (Packard). The IC₅₀ was calculated using (one site binding competition analysis) GraphPad Prism5 as a measure of receptor affinity.
Membranes were prepared in the following way; the cells were rinsed with PBS and incubated with Versene for approximately 5 min before harvesting. The cells were flushed with PBS and the cell-suspension was centrifuged for 5 min at 1000 rpm. Cells were homogenized (Ultrathurrax) in a buffer containing 20 mM Na-HEPES and 10 mM EDTA (pH 7.4) and centrifuged at 20.000 rpm for 15 min. The resulting pellet was resuspended, homogenized and centrifuged (20.000 rpm, 15 min) in a buffer containing 20 mM Na-HEPES and 0.1 mM EDTA (pH 7.4, buffer 2). The resulting pellet was resuspended in buffer 2 and protein concentration was measured (BCA protein Assay, Pierce). The homogenate was kept cold during the whole procedure. The membranes were kept at −80° C. until use. Assay was performed in a 384 well Optiplate (PerkinElmer) in a total volume of 40 ul. Membranes were mixed with SPA beads.

Experiment [2] concerns the target T1, human calcitonin receptor. Nature of the experiment: SPA competition binding, membranes with human calcitonin receptor, displacement of 125I-calcitonin (Assay VII). Here is the method:
Membranes were prepared in the following way; the cells were rinsed with PBS and incubated with Versene for approximately 5 min before harvesting. The cells were flushed with PBS and the cell-suspension was centrifuged for 5 min at 1000 rpm. Cells were homogenized (Ultrathurrax) in a buffer containing 20 mM Na-HEPES and 10 mM EDTA (pH 7.4) and centrifuged at 20.000 rpm for 15 min. The resulting pellet was resuspended, homogenized and centrifuged (20.000 rpm, 15 min) in a buffer containing 20 mM Na-HEPES and 0.1 mM EDTA (pH 7.4, buffer 2). The resulting pellet was resuspended in buffer 2 and protein concentration was measured (BCA protein Assay, Pierce). The homogenate was kept cold during the whole procedure. The membranes were kept at −80° C. until use. Assay was performed in a 384 well Optiplate (PerkinElmer) in a total volume of 40 ul. Membranes were mixed with SPA beads. Final concentration of membranes 35 ng/μL final and Final concentration of SPA beads was 0.05 mg/well. Test-compounds were dissolved in DMSO and further diluted in assay buffer (50 mM Hepes, pH 7.4, 1 mM CaCl2, 5 mM MgCl₂, 0.1% OA and 0.02% Tween20). […] The final mixture was incubated for 120 min with shaking at 400 rpm at 25° C. prior to centrifugation (1500 rpm, 10 min). Samples were analyzed on TopCounter™ (Packard). The […] was calculated using (one site binding competition analysis) GraphPad Prism5 as a measure of receptor affinity.
(In a radioligand displacement assay an active substance lowers the binding of a labelled ligand.)

B1: N^α1-[2-[2-[2-[[2-[2-[2-[[(4S)-4-carboxy-4-(19-carboxynonadecanoylamino)butanoyl]amino]ethoxy]ethoxy]acetyl]amino]ethoxy]ethoxy]acetyl]-[Glu14,Arg17,Pro21,Pro27 … (peptide)
peptide: {C20 diacid-γGlu-AEEA-AEEA}-KCNTATCATQRLAEFLRHSSPNFGAIPSSTNVGSNTP-NH2
modifications: disulfide 2-7
SMILES: CC[C@H](C)[C@H](NC(=O)[C@H](C)NC(=O)CNC(=O)[C@H](Cc1ccccc1)NC(=O)[C@H](CC(N)=O)NC(=O)[C@@H]1CCCN1C(=O)[C@H](CO)NC(=O)[C@H](CO)NC(=O)[C@H](Cc1c[nH]cn1)NC(=O)[C@H](CCCNC(=N)N)NC(=O)[C@H](CC(C)C)NC(=O)[C@H](Cc1ccccc1)NC(=O)[C@H](CCC(=O)O)NC(=O)[C@H](C)NC(=O)[C@H](CC(C)C)NC(=O)[C@H](CCCNC(=N)N)NC(=O)[C@H](CCC(N)=O)NC(=O)[C@@H](NC(=O)[C@H](C)NC(=O)[C@@H]1CSSC[C@H](NC(=O)[C@H](CCCCN)NC(=O)COCCOCCNC(=O)COCCOCCNC(=O)CC[C@H](NC(=O)CCCCCCCCCCCCCCCCCCC(=O)O)C(=O)O)C(=O)N[C@@H](CC(N)=O)C(=O)N[C@@H]([C@@H](C)O)C(=O)N[C@@H](C)C(=O)N[C@@H]([C@@H](C)O)C(=O)N1)[C@@H](C)O)C(=O)N1CCC[C@H]1C(=O)N[C@@H](CO)C(=O)N[C@@H](CO)C(=O)N[C@H](C(=O)N[C@@H](CC(N)=O)C(=O)N[C@H](C(=O)NCC(=O)N[C@@H](CO)C(=O)N[C@@H](CC(N)=O)C(=O)N[C@H](C(=O)N1CCC[C@H]1C(N)=O)[C@@H](C)O)C(C)C)[C@@H](C)O
notes: also called compound 20
As usually defined, the IC50 is the point on the concentration scale where inhibition reaches its midpoint. In the case of B1, in experiment [1], the “Ratio hCT/hAmylin binding” value is 3.6. Further, the IC50 in experiment [2] came to 0.787 nM.

B2: N^α1-[(4S)-4-carboxy-4-(19-carboxynonadecanoylamino)butanoyl]-[Arg17,Pro21,Pro27,His34]-h-amylin (peptide)
peptide: KCNTATCATQRLANFLRHSSPNFGAIPSSTNVGHNTY
modifications: C20 diacid-gGlu on the alpha amino group of the N-terminal residue; disulfide bridge Cys2-Cys7; C-terminal amide
notes: also called compound 40
B2: in experiment [1], the “Ratio hCT/hAmylin binding” value turned out to be 31.1. Moreover, in experiment [2], the IC50 is 17.1 nM.

B3: N^α1-[(4S)-4-carboxy-4-(19-carboxynonadecanoylamino)butanoyl]-[Arg17,Pro21,Pro27,Arg34]-h-amylin (peptide)
peptide: KCNTATCATQRLANFLRHSSPNFGAIPSSTNVGRNTY
modifications: C20 diacid-gGlu on the alpha amino group of the N-terminal residue; disulfide bridge Cys2-Cys7; C-terminal amide
notes: also called compound 39
B3: in experiment [1], the “Ratio hCT/hAmylin binding” value came to 29. Further, the IC50 in experiment [2] was 19.3 nM.

B4: N^α1-[(4S)-4-carboxy-4-(19-carboxynonadecanoylamino)butanoyl]-[Asp14,Arg17,Pro21,Pro27,Pro37]-h-amylin (peptide)
peptide: {C20 diacid-γGlu}-KCNTATCATQRLADFLRHSSPNFGAIPSSTNVGSNTP-NH2
modifications: disulfide 2-7
SMILES: CC[C@H](C)[C@H](NC(=O)[C@H](C)NC(=O)CNC(=O)[C@H](Cc1ccccc1)NC(=O)[C@H](CC(N)=O)NC(=O)[C@@H]1CCCN1C(=O)[C@H](CO)NC(=O)[C@H](CO)NC(=O)[C@H](Cc1c[nH]cn1)NC(=O)[C@H](CCCNC(=N)N)NC(=O)[C@H](CC(C)C)NC(=O)[C@H](Cc1ccccc1)NC(=O)[C@H](CC(=O)O)NC(=O)[C@H](C)NC(=O)[C@H](CC(C)C)NC(=O)[C@H](CCCNC(=N)N)NC(=O)[C@H](CCC(N)=O)NC(=O)[C@@H](NC(=O)[C@H](C)NC(=O)[C@@H]1CSSC[C@H](NC(=O)[C@H](CCCCN)NC(=O)CC[C@H](NC(=O)CCCCCCCCCCCCCCCCCCC(=O)O)C(=O)O)C(=O)N[C@@H](CC(N)=O)C(=O)N[C@@H]([C@@H](C)O)C(=O)N[C@@H](C)C(=O)N[C@@H]([C@@H](C)O)C(=O)N1)[C@@H](C)O)C(=O)N1CCC[C@H]1C(=O)N[C@@H](CO)C(=O)N[C@@H](CO)C(=O)N[C@H](C(=O)N[C@@H](CC(N)=O)C(=O)N[C@H](C(=O)NCC(=O)N[C@@H](CO)C(=O)N[C@@H](CC(N)=O)C(=O)N[C@H](C(=O)N1CCC[C@H]1C(N)=O)[C@@H](C)O)C(C)C)[C@@H](C)O
notes: also called compound 10
For B4, the “Ratio hCT/hAmylin binding” value in experiment [1] was determined as 1.2. For the same molecule, the IC50 in experiment [2] turned out to be 0.099 nM.

B5: N^α1-[(4S)-4-carboxy-4-(19-carboxynonadecanoylamino)butanoyl]-[Arg17,Pro21,Pro27,Glu35]-h-amylin (peptide)
peptide: KCNTATCATQRLANFLRHSSPNFGAIPSSTNVGSETY
modifications: C20 diacid-gGlu on the alpha amino group of the N-terminal residue; disulfide bridge Cys2-Cys7; C-terminal amide
notes: also called compound 23
In the case of B5, the “Ratio hCT/hAmylin binding” value in experiment [1] stood at 25. Further, the IC50 in experiment [2] was determined as 21.8 nM.

B6: N^α1-[(4S)-4-carboxy-4-(19-carboxynonadecanoylamino)butanoyl]-[Glu14,Arg17,Pro21,Pro25,Pro28,Pro29,Pro37]-h-amylin (peptide)
peptide: {C20 diacid-γGlu}-KCNTATCATQRLAEFLRHSSPNFGPILPPTNVGSNTP-NH2
modifications: disulfide 2-7
SMILES: CC[C@H](C)[C@H](NC(=O)[C@@H]1CCCN1C(=O)CNC(=O)[C@H](Cc1ccccc1)NC(=O)[C@H](CC(N)=O)NC(=O)[C@@H]1CCCN1C(=O)[C@H](CO)NC(=O)[C@H](CO)NC(=O)[C@H](Cc1c[nH]cn1)NC(=O)[C@H](CCCNC(=N)N)NC(=O)[C@H](CC(C)C)NC(=O)[C@H](Cc1ccccc1)NC(=O)[C@H](CCC(=O)O)NC(=O)[C@H](C)NC(=O)[C@H](CC(C)C)NC(=O)[C@H](CCCNC(=N)N)NC(=O)[C@H](CCC(N)=O)NC(=O)[C@@H](NC(=O)[C@H](C)NC(=O)[C@@H]1CSSC[C@H](NC(=O)[C@H](CCCCN)NC(=O)CC[C@H](NC(=O)CCCCCCCCCCCCCCCCCCC(=O)O)C(=O)O)C(=O)N[C@@H](CC(N)=O)C(=O)N[C@@H]([C@@H](C)O)C(=O)N[C@@H](C)C(=O)N[C@@H]([C@@H](C)O)C(=O)N1)[C@@H](C)O)C(=O)N[C@@H](CC(C)C)C(=O)N1CCC[C@H]1C(=O)N1CCC[C@H]1C(=O)N[C@H](C(=O)N[C@@H](CC(N)=O)C(=O)N[C@H](C(=O)NCC(=O)N[C@@H](CO)C(=O)N[C@@H](CC(N)=O)C(=O)N[C@H](C(=O)N1CCC[C@H]1C(N)=O)[C@@H](C)O)C(C)C)[C@@H](C)O
notes: also called compound 4
As for B6, in experiment [1], the “Ratio hCT/hAmylin binding” value was 2.1. The IC50 in experiment [2] was 0.688 nM.

B7: N^α1-[(4S)-4-carboxy-4-(19-carboxynonadecanoylamino)butanoyl]-[Arg17,Pro21,Pro27,Pro31,Glu35]-h-amylin (peptide)
peptide: {C20 diacid-γGlu}-KCNTATCATQRLANFLRHSSPNFGAIPSSTPVGSETY-NH2
modifications: disulfide 2-7
SMILES: CC[C@H](C)[C@H](NC(=O)[C@H](C)NC(=O)CNC(=O)[C@H](Cc1ccccc1)NC(=O)[C@H](CC(N)=O)NC(=O)[C@@H]1CCCN1C(=O)[C@H](CO)NC(=O)[C@H](CO)NC(=O)[C@H](Cc1c[nH]cn1)NC(=O)[C@H](CCCNC(=N)N)NC(=O)[C@H](CC(C)C)NC(=O)[C@H](Cc1ccccc1)NC(=O)[C@H](CC(N)=O)NC(=O)[C@H](C)NC(=O)[C@H](CC(C)C)NC(=O)[C@H](CCCNC(=N)N)NC(=O)[C@H](CCC(N)=O)NC(=O)[C@@H](NC(=O)[C@H](C)NC(=O)[C@@H]1CSSC[C@H](NC(=O)[C@H](CCCCN)NC(=O)CC[C@H](NC(=O)CCCCCCCCCCCCCCCCCCC(=O)O)C(=O)O)C(=O)N[C@@H](CC(N)=O)C(=O)N[C@@H]([C@@H](C)O)C(=O)N[C@@H](C)C(=O)N[C@@H]([C@@H](C)O)C(=O)N1)[C@@H](C)O)C(=O)N1CCC[C@H]1C(=O)N[C@@H](CO)C(=O)N[C@@H](CO)C(=O)N[C@H](C(=O)N1CCC[C@H]1C(=O)N[C@H](C(=O)NCC(=O)N[C@@H](CO)C(=O)N[C@@H](CCC(=O)O)C(=O)N[C@H](C(=O)N[C@@H](Cc1ccc(O)cc1)C(N)=O)[C@@H](C)O)C(C)C)[C@@H](C)O
notes: also called compound 28
With B7, the “Ratio hCT/hAmylin binding” value in experiment [1] was determined as 20.5. Besides, the IC50 in experiment [2] worked out at 12.5 nM.
